Assay results taken from US20220204577A1, “Synthetic Peptides With Affinity for the Interleukin-10 Receptor, Pharmaceutical Composition and Use Thereof as Immunomodulators for Treating Autoimmune, Inflammatory or Allergic Diseases” (Universidade Federal de Uberlândia, priority 2019, published 2022).

System: mouse basophilic leukemia cells transfected with the human FcεRI IgE receptor (hRBL)
Assay: IgE-mediated release of β-hexosaminidase (basophil degranulation) in hRBL cells
Assay type: cell-based
Conditions: rIL10 treatment; versus cells treated with Bet v1 alone; serum from seven birch pollen-allergic donors
Protocol: The effect of Pep 1 on IgE-mediated release was studied using mouse basophilic leukemia cells transfected with the human FcεRI IgE receptor (hRBL). The hRBL cells were sensitized with serum from seven patients allergic to birch pollen. The cells were stimulated with the antigen and its interaction with immobilized IgEs resulting in the release of β-hexosaminidase.
When cells were treated with a composition containing Pep 1 to 1 μM (FIG. 10A) or rIL10 (FIG. 10B), the amount of Bet v 1 required to induce the same amount of degranulation was higher than for cells treated with Bet v1 alone (P<0.05). Amount of rBet v 1 (ng/mL) required to induce half the release of β-hexosaminidase using serum from seven birch pollen-allergic donors after treatment with Pep 1 (A) (P<0.05) and rIL10 (B) * P<0.05.

B1: rIL10: recombinant IL-10, used as control (protein, UniProt P22301 19-178, looked up)
Interleukin-10: SPGQGTQSENSCTHFPGNLPNMLRDLRDAFSRVKTFFQMKDQLDNLLLKESLLEDFKGYLGCQALSEMIQFYLEEVMPQAENQDPDIKAHVNSLGENLKTLRLRLRRCHRFLPCENKSKAVEQVKNAFNKLQEKGIYKAMSEFDIFINYIEAYMTMKIRN
amount of Bet v 1 required to induce the same amount of degranulation: higher
